Measurements as given in US20130089893A1 (TRILLIUM THERAPEUTICS, published 2013).
Values belong to the binder of their own block, whether it stands above or below them.

Tests used:
[1] = target: ovalbumin-anti-ovalbumin immune complexes (OVA ICs); test: cell-based or functional assay
[2] = target: heat-aggregated IgG (HAGG); test: cell-based or functional assay

- fold potency against BIF and M2, loss of CD62L on human neutrophils induced by OVA ICs [1]: ~6 fold
- fold potency against Fc-tagged monomer (M2), MC/9 TNF-α release [1]: 12 fold
- fold potency against the non-Fc tagged dimer, MC/9 TNF-α release [1]: 3 fold
- fold potency against BIF and M2, HAGG-induced platelet activation (CD41 and CD62P positive) [2]: ~3 fold
B1: recombinant soluble D2FcγRIIaFc (D2) protein (Fc fusion)
chain: QAAAPPKAVLKLEPPWINVLQEDSVTLTCQGARSPESDSIQWFHNGNLIPTHTQPSYRFKANNNDSGEYTCQTGQTSLSDPVHLTVLSEWLVLQTPHLEFQEGETIMLRCHSWKDKPLVKVTFFQNGKSQKFSHLDPTFSIPQANHSHSGDYHCTGNIGYTLFSSKPVTITVQVPSMGSSSPVAPPKAVLKLEPPWINVLQEDSVTLTCQGARSPESDSIQWFHNGNLIPTHTQPSYRFKANNNDSGEYTCQTGQTSLSDPVHLTVLSEWLVLQTPHLEFQEGETIMLRCHSWKDKPLVKVTFFQNGKSQKFSHLDPTFSIPQANHSHSGDYHCTGNIGYTLFSSKPVTITVQVPSMGSSSPPRGPTIKPCPPCKCPAPNLEGGPSVFIFPPKIKDVLMISLSPIVTCVVVDVSEDDPDVQISWFVNNVEVHTAQTQTHREDYNSTLRVVSALPIQHQDWMSGKAFACAVNNKDLPAPIERTISKPKGSVRAPQVYVLPPPEEEMTKKQVTLTCMVTDFMPEDIYVEWTNNGKTELNYKNTEPVLDSDGSYFMYSKLRVEKKNWVERNSYSCSVVHEGLHNHHTTKSFSRTPGK

- IC50, TNF-α release from MC/9 cells induced by OVA ICs [1]: 2.1 µg/mL
- fold potency against rsFcγRIIa monomer, MC/9 TNF-α release [1]: 8 fold
B2: recombinant soluble FcγRIIa dimer (rsFcγRIIa dimer), head to tail homodimer construct of FIG. 1 (receptor)
chain: QAAAPPKAVLKLEPPWINVLQEDSVTLTCQGARSPESDSIQWFHNGNLIPTHTQPSYRFKANNNDSGEYTCQTGQTSLSDPVHLTVLSEWLVLQTPHLEFQEGETIMLRCHSWKDKPLVKVTFFQNGKSQKFSHLDPTFSIPQANHSHSGDYHCTGNIGYTLFSSKPVTITVQVPSMGSSSPVAPPKAVLKLEPPWINVLQEDSVTLTCQGARSPESDSIQWFHNGNLIPTHTQPSYRFKANNNDSGEYTCQTGQTSLSDPVHLTVLSEWLVLQTPHLEFQEGETIMLRCHSWKDKPLVKVTFFQNGKSQKFSHLDPTFSIPQANHSHSGDYHCTGNIGYTLFSSKPVTITVQVPSMGSSSPHHHHHH
